{"source": "patent US6984772", "key": {"[1]": {"molecular_target": "Plasma derived human fibrinogen (reference protein) (UniProt P02671)"}, "[2]": {"molecular_target": "Recombinant human fibrinogen from the milk of transgenic mice (UniProt P02671)"}}}
{"substance": "Human thrombin", "values": [{"measurement": "clot formation after thrombin, 4 U/ml, 37 C, 24 hours", "setting": "[1]", "result": "Cloudy clot-like precipitates were clearly visible in ... hFIB-spiked NTG (pellet-2)"}, {"measurement": "clot formation after thrombin, 4 U/ml, 37 C, 24 hours", "setting": "[2]", "result": "Cloudy clot-like precipitates were clearly visible in TG (pellet-2)"}]}
